Data taken from US20180057581A1 (MorphoSys, published 2018).

T1: human cell-surface M-CSF on stably transfected CHO cells (human, UniProt P09603 33-554)
T1 construct: also called csM-CSF
T1 sequence: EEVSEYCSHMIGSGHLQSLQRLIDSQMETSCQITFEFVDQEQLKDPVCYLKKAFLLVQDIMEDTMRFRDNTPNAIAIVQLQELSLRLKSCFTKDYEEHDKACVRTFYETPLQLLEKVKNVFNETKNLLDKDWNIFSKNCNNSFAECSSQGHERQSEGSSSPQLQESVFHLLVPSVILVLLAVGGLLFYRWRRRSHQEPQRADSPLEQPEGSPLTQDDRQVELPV

T2: Recombinant human sgM-CSF (human, UniProt P09603 33-255)
T2 construct: also called human secreted glycosylated M-CSF; Human M-CSF
T2 sequence: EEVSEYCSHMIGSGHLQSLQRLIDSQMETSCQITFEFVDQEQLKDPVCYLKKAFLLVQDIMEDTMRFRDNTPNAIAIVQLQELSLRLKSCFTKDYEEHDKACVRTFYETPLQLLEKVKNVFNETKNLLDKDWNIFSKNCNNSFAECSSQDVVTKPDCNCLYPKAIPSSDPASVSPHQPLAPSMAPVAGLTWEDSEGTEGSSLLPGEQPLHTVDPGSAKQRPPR

T3: Recombinant cynomolgus monkey sgM-CSF (cynomolgus (Macaca fascicularis), UniProt P09603 33-255 (human entry), limits assumed)
T3 construct: used also where only 'cynomolgus M-CSF' is printed (ELISA result, SET); also called cynomolgus sgM-CSF; cyno sgM-CSF
T3 chain: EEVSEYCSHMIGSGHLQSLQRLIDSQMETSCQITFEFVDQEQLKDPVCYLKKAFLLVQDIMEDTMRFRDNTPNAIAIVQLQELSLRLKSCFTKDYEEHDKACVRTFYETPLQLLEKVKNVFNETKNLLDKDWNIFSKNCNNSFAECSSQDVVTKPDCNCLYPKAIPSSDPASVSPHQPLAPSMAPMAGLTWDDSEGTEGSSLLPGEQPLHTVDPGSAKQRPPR


Tests used:
[1] = target: T1, human cell-surface M-CSF on stably …; test: FACS, CHO cells stably transfected with M-CSF (n = 3)
[2] = target: T2, Recombinant human sgM-CSF; test: MSD receptor binding inhibition: 12.5 pM human sgM-CSF preincubated with antibody, binding to coated human CSF1-R-Fc
Procedure: (§1) Complexes were then transferred to 384 well MSD plates coated with 2 μg/ml of the corresponding receptor. Plates were then washed and incubated with the streptavidin/ECL conjugate for 2 h with shaking at room temperature. 35 μl MSD read buffer T with surfactant was then added per well and subsequently measured using MSD Sector Imager 6000.

[3] = target: T3, Recombinant cynomolgus monkey sgM-CSF; test: MSD receptor binding inhibition: 12.5 pM cynomolgus sgM-CSF preincubated with antibody, binding to coated human CSF1-R-Fc
Procedure: as §1

[4] = target: T3, Recombinant cynomolgus monkey sgM-CSF; test: cell-based or functional assay
[5] = target: T2, Recombinant human sgM-CSF; test: cell-based or functional assay

| EC50 [1] [nM] | IC50 [2] [nM] | IC50 [3] [nM] | IC50, inhibition of M-NFS-60 proliferation induced by recombinant cynomolgus M-CSF (9.5 pM) [4] [pM] | IC50, inhibition of M-NFS-60 proliferation induced by recombinant human M-CSF (9.5 pM) [5] [pM] | Binder |
| --- | --- | --- | --- | --- | --- |
| 16.4 | 0.0091 | 0.0091 | 8.1 | 8.4 | Romaine, IgG1_D265A (antibody, V domains shown, tested as IgG1 with D265A in the Fc (EU index); Parental antibody of Satine, Servane) VH: EVQLVESGGGLVKPGGSLRLSCAASGFTFSIYAMSWVRQAPGKGLEWVGRIKSNADGGTTEYAAPVKGRFTISRDDSKNTLYLQMNSLKTEDTAVYYCARMRYYSDLYFDPWGQGTLVTVSS VL: DIELTQPPSVSVSPGQTASITCSGDAIGSKYVHWYQQKPGQAPVLVISKDNKRPSGIPERFSGSNSGNTATLTISGTQAEDEADYYCQTATVSSYWWVFGGGTKLTVLG |
| 11.3 | 0.0151 | 0.0135 | 5.4 | 5.3 | Satine, IgG1_D265A (antibody, V domains shown, tested as IgG1 with D265A in the Fc (EU index)) VH: EVQLVESGGGLVKPGGSLRLSCAASGFTFSIYAMSWVRQAPGKGLEWVGRIKSNADGGTTEYAAPVKGRFTISRDDSKNTLYLQMNSLKTEDTAVYYCARMRYYSDLYFDPWGQGTLVTVSS VL: SYELTQPPSVSVSPGQTASITCSGDKLGQKYVSWYQQKPGQSPVLVISQDRKRPSGIPERFSGSNSGNTATLTISGTQAEDEADYYCQTWTHLQWVFGGGTKLTVLG |
| 21.3 | 0.0313 | 0.0118 | 13.4 | 11.8 | Servane, IgG1_D265A (antibody, V domains shown, tested as IgG1 with D265A in the Fc (EU index)) VH: EVQLVESGGGLVKPGGSLRLSCAASGFTFSTYAISWVRQAPGKGLEWVGFIKSKHNSGTTEYAAPVKGRFTISRDDSKNTLYLQMNSLKTEDTAVYYCARMRYYSDLYFDPWGQGTLVTVSS VL: SYELTQPPSVSVSPGQTASITCSGDKLGQKYVSWYQQKPGQSPVLVISQDRKRPSGIPERFSGSNSGNTATLTISGTQAEDEADYYCQTWTHLQWVFGGGTKLTVLG |
| 7.5 | 0.0062 | 0.0066 | 3.3 | 2.9 | Blanche, IgG1_D265A (antibody, V domains shown, tested as IgG1 with D265A in the Fc (EU index); Parental antibody of Caline, Camille, Celine) VH: QVQLQQSGPGLVKPSQTLSLTCAISGDSVSSNSAAWNWIRQSPSRGLEWLGRTYYRSKWKHEYAMSVKSRITINPDTSKNQFSLQLNSVTPEDTAVYYCARDRYYYSAFDYWGQGTLVTVSS VL: DIALTQPASVSGSPGQSITISCTGTSSDVGGYNSVSWYQQHPGKAPKLMIYAVSNRPSGVSNRFSGSKSGNTASLTISGLQAEDEADYYCASYDERFTRVFGGGTKLTVLG |
| 12.3 | 0.007 | 0.0073 | 2.8 | 3.1 | Meriem, IgG1_D265A (antibody, V domains shown, tested as IgG1 with D265A in the Fc (EU index)) VH: QVQLQQSGPGLVKPSQTLSLTCAISGDSVSTSSAAWNWIRQSPSRGLEWLGRTYYRSKWKKEYAQSVKSRITINPDTSKNQFSLQLNSVTPEDTAVYYCARDRYYYSAFDYWGQGTLVTVSS VL: QSALTQPASVSGSPGQSITISCTGTSSDVGGYNSVSWYQQHPGKAPKLIIYAVSNRPSGVSNRFSGSKSGNTASLTISGLQAEDEADYYCASYDERFTRVFGGGTKLTVLG |
| 6.1 | 0.0044 | 0.0059 | 2.6 | 2.3 | Camille, IgG1_D265A (antibody, V domains shown, tested as IgG1 with D265A in the Fc (EU index)) VH: QVQLQQSGPGLVKPSQTLSLTCAISGESVSTSSAAWNWIRQSPSRGLEWLGRTYYRSKWKHEYAVSVKSRITINPDTSKNQFSLQLNSVTPEDTAVYYCARDRYYYSAFDYWGQGTLVTVSS VL: QSALTQPASVSGSPGQSITISCTGTSSDVGGYNSVSWYQQHPGKAPKLLIYAVSNRPSGVSNRFSGSKSGNTASLTISGLQAEDEADYYCASYDERFTRVFGGGTKLTVLG |
| 6.4 | 0.0056 | 0.0056 | 2.8 | 3 | Madeleine, IgG1_D265A (antibody, V domains shown, tested as IgG1 with D265A in the Fc (EU index)) VH: QVQLQQSGPGLVKPSQTLSLTCAISGDSVSSNSAAWNWIRQSPSRGLEWLGRTYYRSKWKKEYAQSVKSRITINPDTSKNQFSLQLNSVTPEDTAVYYCARDRYYYSAFDYWGQGTLVTVSS VL: QSALTQPASVSGSPGQSITISCTGTSSDVGGYNSVSWYQQHPGKAPKLMIYAVSNRPSGVSNRFSGSKSGNTASLTISGLQAEDEADYYCASYDERFTRVFGGGTKLTVLG |
| 11.2 | 0.0049 | 0.0043 | 2.8 | 2.6 | Laurine, IgG1_D265A (antibody, V domains shown, tested as IgG1 with D265A in the Fc (EU index); Parental antibody of Madeleine, Maelle, Meriem) VH: QVQLQQSGPGLVKPSQTLSLTCAISGDSVSSNSAAWNWIRQSPSRGLEWLGRTYYRSKWKKEYAQSVKSRITINPDTSKNQFSLQLNSVTPEDTAVYYCARDRYYYSAFDYWGQGTLVTVSS VL: DIALTQPASVSGSPGQSITISCTGTSSDVGGYNSVSWYQQHPGKAPKLMIYAVSNRPSGVSNRFSGSKSGNTASLTISGLQAEDEADYYCASYDERFTRVFGGGTKLTVLG |
| 9.8 | 0.0061 | 0.0063 | 4.3 | 3.1 | Caline, IgG1_D265A (antibody, V domains shown, tested as IgG1 with D265A in the Fc (EU index)) VH: QVQLQQSGPGLVKPSQTLSLTCAISGDSVSSNSAAWNWIRQSPSRGLEWLGRTYYRSKWKHEYAMSVKSRITINPDTSKNQFSLQLNSVTPEDTAVYYCARDRYYYSAFDYWGQGTLVTVSS VL: QSALTQPASVSGSPGQSITISCTGTSSDVGGYNSVSWYQQHPGKAPKLMIYAVSNRPSGVSNRFSGSKSGNTASLTISGLQAEDEADYYCASYDERFTRVFGGGTKLTVLG |
| 10.2 | 0.0053 | 0.0064 | 2.3 | 2.7 | Maelle, IgG1_D265A (antibody, V domains shown, tested as IgG1 with D265A in the Fc (EU index)) VH: QVQLQQSGPGLVKPSQTLSLTCAISGESVSTSSAAWNWIRQSPSRGLEWLGRTYYRSKWKKEYAQSVKSRITINPDTSKNQFSLQLNSVTPEDTAVYYCARDRYYYSAFDYWGQGTLVTVSS VL: QSALTQPASVSGSPGQSITISCTGTSSDVGGYNSVSWYQQHPGKAPKLIIYAVSNRPSGVSNRFSGSKSGNTASLTISGLQAEDEADYYCASYDERFTRVFGGGTKLTVLG |
| 9.7 | 0.0047 | 0.0069 | 3 | 2.7 | Celine, IgG1_D265A (antibody, V domains shown, tested as IgG1 with D265A in the Fc (EU index)) VH: QVQLQQSGPGLVKPSQTLSLTCAISGDSVSTSSAAWNWIRQSPSRGLEWLGRTYYRSKWKHEYAVSVKSRITINPDTSKNQFSLQLNSVTPEDTAVYYCARDRYYYSAFDYWGQGTLVTVSS VL: QSALTQPASVSGSPGQSITISCTGTSSDVGGYNSVSWYQQHPGKAPKLIIYAVSNRPSGVSNRFSGSKSGNTASLTISGLQAEDEADYYCASYDERFTRVFGGGTKLTVLG |
| 12.6 | 0.0265 | 0.0276 | 4.1 | 3.6 | HeRX1-10G1, IgG1 (antibody, V domains shown, tested as IgG1) VH: QVQLQESGPGLVKPSQTLSLTCTVSDYSITSDYAWNWIRQFPGKGLEWMGYISYSGSTSYNPSLKSRITISRDTSKNQFSLQLNSVTAADTAVYYCASFDYAHAMDYWGQGTTVTVSS VL: DIVLTQSPAFLSVTPGEKVTFTCQASQSIGTSIHWYQQKTDQAPKLLIKYASESISGIPSRFSGSGSGTDFTLTISSVEAEDAADYYCQQINSWPTTFGGGTKLEIKR |
| 8.9 | 0.028 | 0.018 | 3.5 | 3 | HeRX1-10G1, IgG1_D265A (antibody, V domains shown, Prior art antibody; tested as IgG1 with D265A in the Fc (EU index)) VH: QVQLQESGPGLVKPSQTLSLTCTVSDYSITSDYAWNWIRQFPGKGLEWMGYISYSGSTSYNPSLKSRITISRDTSKNQFSLQLNSVTAADTAVYYCASFDYAHAMDYWGQGTTVTVSS VL: DIVLTQSPAFLSVTPGEKVTFTCQASQSIGTSIHWYQQKTDQAPKLLIKYASESISGIPSRFSGSGSGTDFTLTISSVEAEDAADYYCQQINSWPTTFGGGTKLEIKR |
